{
  "source": "patent EP2487185A1",
  "about": "(Clinuvel Pharmaceuticals Limited, dated 2012)",
  "molecular_target": "Melanocortin-1 Receptor (human, UniProt Q01726 1-317)",
  "sequence (Q01726 whole entry)": "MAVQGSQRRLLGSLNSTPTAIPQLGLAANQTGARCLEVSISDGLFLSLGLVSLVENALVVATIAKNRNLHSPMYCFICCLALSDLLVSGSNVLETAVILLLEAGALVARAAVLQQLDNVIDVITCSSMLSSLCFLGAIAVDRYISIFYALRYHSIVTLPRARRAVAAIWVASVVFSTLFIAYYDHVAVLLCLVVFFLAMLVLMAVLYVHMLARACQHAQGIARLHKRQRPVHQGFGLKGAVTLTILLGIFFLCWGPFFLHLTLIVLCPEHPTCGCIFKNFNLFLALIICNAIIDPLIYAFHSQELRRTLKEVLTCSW",
  "test": "cell-based or functional assay",
  "note": "Non-standard residues stand in square brackets, D forms with d. Nle = CCCC[C@H](N)C(=O)O",
  "data": [
    {"binder": "Ac-[Nle]EH[dF]RW-NH2 (SMILES CCCC[C@H](NC(C)=O)C(=O)N[C@@H](CCC(=O)O)C(=O)N[C@@H](Cc1c[nH]cn1)C(=O)N[C@H](Cc1ccccc1)C(=O)N[C@@H](CCCNC(=N)N)C(=O)N[C@@H](Cc1c[nH]c2ccccc12)C(N)=O)", "note": "[CUV9900, Ac-Nle-Glu-His-D-Phe-Arg-Trp-NH2 (SEQ ID NO: 1) variation]", "values": [
      {"measurement": "tyrosinase activity, concentration giving maximal stimulation, melanocyte strain 102b, 6 days", "value": 0.1, "unit": "nM"}
    ]}
  ]
}
